The record followed here is publication PMC11929605 (Nature, 2024).

The term stoichiometry N denotes a count of units in the complex or per binding partner.

The labels stand for the following.
B1: human CaSR (residues 20-894), wild-type construct FLAG-CaSR (receptor, UniProt P41180 20-894, looked up)
chain: YGPDQRAQKKGDIILGGLFPIHFGVAAKDQDLKSRPESVECIRYNFRGFRWLQAMIFAIEEINSSPALLPNLTLGYRIFDTCNTVSKALEATLSFVAQNKIDSLNLDEFCNCSEHIPSTIAVVGATGSGVSTAVANLLGLFYIPQVSYASSSRLLSNKNQFKSFLRTIPNDEHQATAMADIIEYFRWNWVGTIAADDDYGRPGIEKFREEAEERDICIDFSELISQYSDEEEIQHVVEVIQNSTAKVIVVFSSGPDLEPLIKEIVRRNITGKIWLASEAWASSSLIAMPQYFHVVGGTIGFALKAGQIPGFREFLKKVHPRKSVHNGFAKEFWEETFNCHLQEGAKGPLPVDTFLRGHEESGDRFSNSSTAFRPLCTGDENISSVETPYIDYTHLRISYNVYLAVYSIAHALQDIYTCLPGRGLFTNGSCADIKKVEAWQVLKHLRHLNFTNNMGEQVTFDECGDLVGNYSIINWHLSPEDGSIVFKEVGYYNVYAKKGERLFINEEKILWSGFSREVPFSNCSRDCLAGTRKGIIEGEPTCCFECVECPDGEYSDETDASACNKCPDDFWSNENHTSCIAKEIEFLSWTEPFGIALTLFAVLGIFLTAFVLGVFIKFRNTPIVKATNRELSYLLLFSLLCCFSSSLFFIGEPQDWTCRLRQPAFGISFVLCISCILVKTNRVLLVFEAKIPTSFHRKWWGLNLQFLLVFLCTFMQIVICVIWLYTAPPSSYRNQELEDEIIFITCHEGSLMALGFLIGYTCLLAAICFFFAFKSRKLPENFNEAKFITFSMLIFFIVWISFIPAYASTYGKFVSAVEVIAILAASFGLLACIFFNKIYIILFKPSRNTIEEVRCSTAAHAFKVAARATLRRSNV
B2: WT human Gαi3 (natural protein)
chain: MGCTLSAEDKAAVERSKMIDRNLREDGEKAAKEVKLLLLGAGESGKSTIVKQMKIIHEDGYSEDECKQYKVVVYSNTIQSIIAIIRAMGRLKIDFGEAARADDARQLFVLAGSAEEGVMTPELAGVIKRLWRDGGVQACFSRSREYQLNDSASYYLNDLDRISQSNYIPTQQDVLRTRVKTTGIVETHFTFKDLYFKMFDVGGQRSERKKWIHCFEGVTAIIFCVALSDYDLVLAEDEEMNRMHESMKLFDSICNNKWFTETSIILFLNKKDLFEEKIKRSPLTICYPEYTGSNTYEEAAAYIQCQFEDLNRRKDTKEIYTHFTCATDTKNVQFVFDAVTDVIIKNNLKECGLY
modifications: lipidated N-terminus

The series “cryo-EM structure” deals with the molecule itself. Briefly: cryo-EM structure.
For series [1], the target named is B1. Briefly: cryo-EM structure.

Take B1: the “stoichiometry N” value in the series “cryo-EM structure” was 2.

B2: the binding result in series [1] was “binds”.
